Assay results taken from the nanobody polyreactivity screen of Harvey et al. (2022).

Experiment: yeast display, Sf9 membrane polyspecificity reagent, FACS + sequencing; frameworks hold sequencing errors
How it was run: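 A synthetic nanobody library was expressed on Saccharomyces cerevisiae BJ5465 by galactose induction for 36–48 hours. The library was stained for 1 hour at 4 °C with 10% biotinylated, detergent-solubilized Sf9 membrane reagent and enriched with streptavidin microbeads before FACS. Low and high (top ~1%) gates were set on anti-HA fluorescence for expression and streptavidin fluorescence for reagent binding, and each polyreactivity label reflects the gate of origin.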

Sequence: QVQLVESGGGLVQAGGSLRLSCAASGSTSHQYAMGSYRQAPGKERELVAAISSRAGSTYYADSVKGRFTISRDNAKNTVYLQMNSLKPEDTAVYYCAAEADSWKWGYDYWGQGTQVTVSS
- polyreactivity (PSR sort gate): low polyreactivity

Sequence: QVQLVESGGGLVQAGGSLRLSCAASGSTFRYNAMGWYRQAPGKERELVAAISSSGGSTRYADSVKGRFTISRDNANNTVYLQMNSLKPEDTAVYYCAVRFYDWRYYYWGQGTQVTVSS
- polyreactivity (PSR sort gate): high polyreactivity

Sequence: QDQLVESGGGLVQAGGSLRLSCAASGRIFNQYGMGWYRQAPGKERELVAAIRSGDSTNYADSVKGRFTISRDNAKNTVYLQMNSLKPEDTAVYYCARDRPGDYAGYDYWGQGTQVTVSS
- polyreactivity (PSR sort gate): low polyreactivity

Sequence: QVQLVESGGGLVQAGGSLRLSCAASGFTLRLNAMGWYRQAPGKARELVAAITRSGGNTYYADSVKGRFTISRDNAKNTVYLEMNSLKPEDSAVYYCAVRQLDRRSPKYNYWGQGTQVTVSS
- polyreactivity (PSR sort gate): high polyreactivity

Sequence: QVQLVESGGGLVQAGGSLRLSCAASGFTFTRYAMGWYRQAPGKERELVADITRSGGTTYYADSVKGRFTISRDNAKNTVYLQMNSLKPEDTAVYYCAADTYSHGRYYRMDYWGQGTQVTVSS
- polyreactivity (PSR sort gate): high polyreactivity

Sequence: QVQLVESGGGLVQAGGSLRLSCAASGSTFGNYAMGGYRQAPGKERELVAVSTSAGSTYYADSVKGRFTISRDNAKNTVYLQMNSLKPEDPAVYYCNTGKHVRYYYWGQGTQVTVSS
- polyreactivity (PSR sort gate): low polyreactivity

Sequence: QVQLVESGGCLVQAGGSLRLSCAASGRNFGTYAMGWYRQATGKERELVAASTRGGTTYYADSVKGRFTISRDNAKNTVYLQMNSLTQEDTAVYYCATGPAIRYDYWGQGTQVTVSS
- polyreactivity (PSR sort gate): low polyreactivity

Sequence: QVQLVESGGGLVQAGGSLRLSCAASGFTFHSYAMGWYRQAPGKERELVAAISRGGGSTYYADSVKGRFTISRDNAKYTVYLQMNSLKPEDTAVYYCAARGQGGYRVGYYYWGQGTQVTVSS
- polyreactivity (PSR sort gate): high polyreactivity

Sequence: QVQLVESGRGLVRAGGSLRLSCAASGRTFGVYAMGWYRQAPGKERELVASIRYSGVSTYYADSVKGRFTISRDNAKNTVYLQMNSLKPEDTAVYYCAARYRSRRVDYGYDYWGQGTQVTVSS
- polyreactivity (PSR sort gate): high polyreactivity

Sequence: QVQLVESGGGLVQAGGSLRLSCAASGFTFSYYGMGWYRQAPGKERELVAAISWSGGRTYYADSVKGRFTISRDNAKNTVYLQMNSLKPEDTAVYYCAASAPRGYGYKYYYWGQGTQVTVSS
- polyreactivity (PSR sort gate): high polyreactivity

Sequence: QVQLVESGGGLVQAGGSLRLSCAASGPTFPFNAMGWYRQAPGKERELVAAISWRDGRTYYADSVKGRFTISRDNAKNTVYLQMNSLKPEDTAVYYCNVVKRRSDWGMDYWGQGTQVTVSS
- polyreactivity (PSR sort gate): high polyreactivity

Sequence: QVQLVESGGGLVQAGGSLRLSCAASGSTFAGNAMGWYRQAPGKERELVAAITSGTGTHYADSVKGRFTISRDNAKNSVYLQMNSLKPEDTAVYYCAAEVWTWAGIWGYEYWGQGTQVTVSS
- polyreactivity (PSR sort gate): low polyreactivity

Sequence: QVQLVESGGGLVQAGGSLRLSCAASGSIFRSYAMGWYRQAPGKERELVASITRSSGSTYYADSVKGRFTISRDNAKNTVYLQMNSLKPEDTAVYYCNAVVSKSRRFRVDYWGQGTQVTVSS
- polyreactivity (PSR sort gate): high polyreactivity

Sequence: QVQLVESGGGLVQAGGSLRLSCAASGSTFYDNAMGWYRQAPGKERELVAAINWSSDTTYYADSVKGRFTISRDNAKNTVYLQMNSLKPEDTAVYYCATDSAYRGYDYWGQGTQVTVSS
- polyreactivity (PSR sort gate): low polyreactivity

Sequence: QVQLVESGGGLVQAGGSLRLSCAASGITFTFNAMGWYRQAPGKDRELVAAMTWSGGSTFYADSVKGRFTISRDNAKNTVYLQMNSLKPEDSAVYYCARDTELYVRWLDYWGQGTQVTVSS
- polyreactivity (PSR sort gate): low polyreactivity

Sequence: QVQLVESGGGLVQAGGSLRLSCAASGIIFFDYAMGWYRQAPGKERELVAAITSSGGSTYYADSVKGRFTISRDNAKNTVYLQMNSLKPEDTAVYYCAAATRGSGRRNDYWGQGTQVTVSS
- polyreactivity (PSR sort gate): high polyreactivity

Sequence: QVQLVDSGGGLVQAGGSLRLSCAASGRTSYENAMGWYREAPGKERELVAAINVSGGSTYYADSVKGRFTISRDNAKNTVYLQMNSLKPEDTAVYYCAADNPYADARSSWYEYNDWGQGTQVTVSS
- polyreactivity (PSR sort gate): high polyreactivity

Sequence: QVQLQESGGGLVQAGGSLRLSCAASGTIFRFRYMGWHRQAPGKERELVAGINGGTTTYYADSVIGRFTISRDNAKNTVYLQMNSLKPEDTAVYYCAADVNYYQHRLYYWGQGTQVTVSS
- polyreactivity (PSR sort gate): low polyreactivity

Sequence: QVQLVESGGGLVQAGGSLRLSCAASGSIFNYYAMGWYRQAPGKERELVAGITTSGGSTYYADSVKGRFTISRDNAKNTVYLQMNSLKPEDTAVYYCAAYDYISSTYFLDDYWGQGTQVTVSS
- polyreactivity (PSR sort gate): low polyreactivity

Sequence: QVQLVESGGGLVQAGGSLRLSCAASGFTFPIYAMGLSRQAPGKERELVAAITTPGGRTYYADSVKGRFTISRDNAKNPVYLQLNSLKPEDTAVYYCNAQGYAYRLWFGYWGQGTQVTVSS
- polyreactivity (PSR sort gate): high polyreactivity

Sequence: QVQLVESGGGLVQAGGSLRLSCAASGSIFQPYAMGWYRQAPGKERELVATISSSGSTYYADSVKGRFTISRDNAKNTVYLQMTSLKPEDTAVYYCAAVYSDGPYNGYWLEYEYWGQGTQVTVSS
- polyreactivity (PSR sort gate): low polyreactivity

Sequence: QVQLVESGGGLVQAGGSLRLSCAASGSIFSTYAMGWYRQAPGKERELVATIRRGGSTYYADSVKGRFTISRDNAKNTVYLQMNSLKPEDTAVYYCAATVSSYPYYRYYSWGQGTQVTVSS
- polyreactivity (PSR sort gate): high polyreactivity

Sequence: QVQLVESGGGLVQAGGSLRLSCAASGFTFNRYTMGWYRQAPGKERELVASISVRGSRTYYADSVKGRFTISRDNAKNTVYLQMNSLKPEDTAVYYCNAKTYVFYRLRSYYYWGQGTQVTVSS
- polyreactivity (PSR sort gate): high polyreactivity

Sequence: QVQLVESGGGLVQAGGSLRLSCAASGLIFIHNTMRWYRQAPGKERELVAAISWSGASTYYADSVKGRFTISRDNAKNTVYLQMNSLKPEDTAVYYCNAGYRYSIYDYWGQGTQVTVSS
- polyreactivity (PSR sort gate): low polyreactivity

Sequence: QVQLVESGGGLVQAVGSLRLSCAASGSIFPDNAMGWYRQAPRKERELVASISWSGGSTYYADSVKGRFTISRDNAKNPVYLQRNSLKPEDTAVYYCARTYYWYLRVDYWGQGTQVTVSS
- polyreactivity (PSR sort gate): low polyreactivity

Sequence: QVQLVESGGGLVQAGGSLRLSCAASGGIFWAYAMGWYRQAPGKERELVAAITTRGTSTYYADSVKGRFTISCDNAKNTVYLQMNSLKPEDTAVYYCAAALYGYYSTLTTYWGQGTQVTVSS
- polyreactivity (PSR sort gate): high polyreactivity

Sequence: QVQLVESGGGLVQAGGSLRLSCAASGFTFPYYAKGWYRQAPGKERELVAASTYSGDSTDYADSVKGRFTISRDNAKNTVYLQMNSLKPEDTAVYYCNVTPDCAVTDDYWGQGTQVTVSS
- polyreactivity (PSR sort gate): low polyreactivity

Sequence: QVQLVESGGGLVQAGGRLRLSCAASGSTFSDYAMGWYRQAPGKERELVADISRSGASTYYADSVKGRFTISRYNAKNTVYLQMNSLKPEDTPVYSSNKAYSGVRYDSWGPGTQVTVSS
- polyreactivity (PSR sort gate): low polyreactivity

Sequence: QVQLVESGGGLVQAGGSLRLSCAASGSTLSKYAMGWYRQAPGKEREFVAAISRSGGSTYYADSVKGRFTISRDKAKNTVYLQMNSLKPEDTAVYYCAKVLRTFSGLYYWGQGTQVTVSS
- polyreactivity (PSR sort gate): high polyreactivity

Sequence: QVQLVESGGGLVQAGGSLRLSCAASGFIFSSYAMGWYRQAPGKERELVAAISKSGDRTSYADSVKGRFTISRDNAKNTVYLQMNSLKPEDTAVYYCAKDRLYRTKKYRDMYYWGQGTQVTVSS
- polyreactivity (PSR sort gate): high polyreactivity

Sequence: QVQHVESGGGLVQAGVSLRLSCAASGSTITYNAMGWYRQAPGKERELVAAITVSDGSTYYADSVKGRFTISRDNAKNTVYLQMNSLKPEDTAVYYCNAYAVYLRYLWYDYWGQGTQVTVSS
- polyreactivity (PSR sort gate): low polyreactivity

Sequence: QVQLVESGGGLDQAGGSLRLSCAASASTFRRYAMGWYRQAPGKERELVAAISRSGGNTYYADSVKGRFTISRDNAKNTVYLQMNSLKPEDTAVYYCAASKLYGSPEHGYWGQGTQVTVSS
- polyreactivity (PSR sort gate): high polyreactivity

Sequence: QVQLEESGGGVVQAGGSLRLSCAASGRTFYHKAMGWYRQAPGKETQVVATINSGGSTYADSVKGRFTISRDNAKNTVYLQMNSVKPEDTAVYYCAATFWSRSRFYYGYDYWGQGTQVTVSS
- polyreactivity (PSR sort gate): high polyreactivity

Sequence: QVQLVESGGGLVQAGGSLRLSCAASGSTFFPYAMGWYRQAPGKERELVAAIRWSGGRTYYADSVKGRFTISRDNAKNTVYLQMNSLKPEDTAVYYCAADKYLDYDYWGQGTQVTVSS
- polyreactivity (PSR sort gate): high polyreactivity

Sequence: QVQLVESGGGLVQAGGSLRLSFAASGLIFGYNAMGWYRQAPGTERELVAAISRRGTSTYYADSVKGRFTISRDNAKNTVYLQMNSLKPEDTAVYYCATYGVNPPGVEEYNYWGQGTQVTVSS
- polyreactivity (PSR sort gate): high polyreactivity

Sequence: QVQLVESGGGLVQAGGSLRLSCAASGRTFPIYAMGWYRQAPGKERELVAAITSYRRGTTYYADSVKGRFTISRDNAKNTVYLQMNSLKPEDTAVYYCTARTLRGGEYKYWGQGTPVTVSS
- polyreactivity (PSR sort gate): high polyreactivity

Sequence: QVKLVESGGGLVQAGGSLRLSCAASGRTFKYYAMGWYRQAPGKERELVAAISWSGGSTYYADSVMGRFTISRDNAKNTVYLQMNSLKPEDTAVYYCAAVRNYHGTWYDYWGQGTQVTVSS
- polyreactivity (PSR sort gate): high polyreactivity

Sequence: QVQLVESGGGLVQAGVSLRLSCAASGSILRQYAMGWYRQAPGKEWELVAAITGSGGSTSYADSVKGRFTISRDNAKNTVYLQMNSLKPEDTAVYYCNAYLSSRTRSTYGSLRMDYWGPGTQVTVSS
- polyreactivity (PSR sort gate): high polyreactivity

Sequence: QVQLVESGGGLVQAGGSLRLSCAASGRILDINTMGWYRHPPGKERELVAAITWSGVSTYYADSVKGRFTISRDNAKNTVYLQMNSLKPEDTAVYYCAARPYYTWRYLPTKSGDYWGQGTQVTVSS
- polyreactivity (PSR sort gate): low polyreactivity

Sequence: QVQLVESGGGLVQAGGSLRLSCAASGRTFISNAMGWYRQAPGKERELVAAISSVGSTNYADSVKGRFTISRDNAKNTVYLQMKSLKPEDTAVYYCAAGRFWFLAHYGGYYWGQGTQVTVSS
- polyreactivity (PSR sort gate): high polyreactivity

Sequence: QVQLVESGGGLVQAGGSLRLSCAASGSISGYYAMGGYRQAPGKERELVASIRYTGARTYYADSVKGRFTISRDNAKNTVYLQMNSLKPEDTAVYYCAADVKRDRVWGGDYWGQGTQVTVSS
- polyreactivity (PSR sort gate): low polyreactivity

Sequence: QVQLVESGGGLVQAGGSLRLSCAASGFIFASYAMGWYRQAPGKERELVAAISWRGGSTYYADSVKGRFTISRDNAKNTVYLQMNSLKPEDTAVYYCKAYVYVGTGRGYDTLDYWGQGTQVTVSS
- polyreactivity (PSR sort gate): low polyreactivity

Sequence: QVQLVESGGGLVQAGGSLRLSCAASGSIFLIYAMGWYRQAPGKERELVAAITGGGTTNYADSVKGRFTISRDNAKNTVYLQMNSLKPEDTAVYYCNAVPRSWSPYRHWFDYWGQGTQVTVSS
- polyreactivity (PSR sort gate): low polyreactivity
